Test results from patent US7119066 (Regeneron, dated 2006).

Assays:
[1] = biological target: T1, rat CNTF receptor on rat superior cervical ganglia (SCG) neurons (rat, UniProt Q08406 23-342); test: competition with 125I-rat CNTF on rat SCG neurons
T1 construct: whole, on cells; also called rat SCG neurons; rat receptor
T1 sequence (looked up): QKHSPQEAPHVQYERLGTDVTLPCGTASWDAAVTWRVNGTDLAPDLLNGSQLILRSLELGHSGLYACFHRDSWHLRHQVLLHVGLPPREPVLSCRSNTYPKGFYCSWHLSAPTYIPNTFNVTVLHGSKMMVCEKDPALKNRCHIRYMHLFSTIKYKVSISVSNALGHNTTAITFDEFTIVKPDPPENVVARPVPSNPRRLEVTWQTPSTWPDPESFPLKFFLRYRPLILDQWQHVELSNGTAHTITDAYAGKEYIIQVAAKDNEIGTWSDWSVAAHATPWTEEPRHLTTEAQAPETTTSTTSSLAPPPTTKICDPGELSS
Procedure: Growth medium consisted of Ham's nutrient mixture F12 with 10% heat-inactivated fetal bovine serum (Hyclone), nerve growth factor (NGF) (100 ng/ml), penicillin (50 U/ml) and streptomycin (50 µg/ml). Cultures were maintained at 37° C. in a humidified 95% air/5% CO_2 atmosphere. Ganglion non-neuronal cells were eliminated by treatment with araC (10 µM) on days 1 and 3 of culture. Cultures were fed 3 times/week and were routinely used for binding assays within 2 weeks.
(§1) Binding was performed directly on cell monolayers. Cells in culture wells were washed once with assay buffer consisting of phosphate buffered saline (PBS; pH 7.4), 0.1 mM bacitracin, 1 mM PMSF, 1 µg/ml leupeptin, and 1 mg/ml BSA. […] Non-specific binding was determined in the presence of 1,000-fold excess of unlabelled CNTF. Specific binding towards MG87/CNTFR was 80–90%. Data were analyzed using the […] program (ISI, Philadelphia, Pa.).

[2] = biological target: T2, human CNTF receptor alpha-component on MG87/CNTFR fibroblasts (human, UniProt P26992 23-342); test: competition with 125I-rat CNTF on MG87/CNTFR cells
T2 construct: whole, on cells; also called huCNTFR; CNTFRα
T2 sequence (looked up): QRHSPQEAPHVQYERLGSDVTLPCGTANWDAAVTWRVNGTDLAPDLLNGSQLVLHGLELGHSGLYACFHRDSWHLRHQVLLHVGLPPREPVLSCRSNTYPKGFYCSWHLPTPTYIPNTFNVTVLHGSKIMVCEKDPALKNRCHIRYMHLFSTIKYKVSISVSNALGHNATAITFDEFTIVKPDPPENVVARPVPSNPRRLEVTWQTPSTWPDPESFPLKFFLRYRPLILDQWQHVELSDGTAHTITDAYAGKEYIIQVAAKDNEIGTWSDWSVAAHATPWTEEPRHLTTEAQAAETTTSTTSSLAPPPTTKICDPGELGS
Procedure: as §1
Similar results were obtained from competition experiments with mouse fibroblasts transfected with a plasmid directing the expression of the human CNTF receptor (FIG. 4b).

B1: recombinant human CNTF (ciliary neurotrophic factor) (ligand)
chain: MAFTEHSPLTPHRRDLCSRSIWLARKIRSDLTALTESYVKHQGLNKNINLDSADGMPVASTDQWSELTEAERLQENLQAYRTFHVLLARLLEDQQVHFTPTEGDFHQAIHTLLLQVAAFAYQIEELMILLEYKIPRNEADGMPINVGDGGLFEKKLWGLKVLQELSQWTVRSIHDLRFISSHQTGIPARGSHYIANNKKM
notes: also called rHCNTF; hCNTF
fold less potent than unlabelled rat CNTF [1]: 90 times | fold less potent than rat CNTF [2]: 12 times
